Results as given in article PMC3427180, “Zea mays Taxilin Protein Negatively Regulates Opaque-2 Transcriptional Activity by Causing a Change in Its Sub-Cellular Distribution” (PLoS ONE, 2012).

Target: T1, Full length Zea mays Opaque-2 (ZmO2) fused to the GAL4 DNA binding domain (Zea mays, UniProt P12959 1-453)
T1 sequence (looked up): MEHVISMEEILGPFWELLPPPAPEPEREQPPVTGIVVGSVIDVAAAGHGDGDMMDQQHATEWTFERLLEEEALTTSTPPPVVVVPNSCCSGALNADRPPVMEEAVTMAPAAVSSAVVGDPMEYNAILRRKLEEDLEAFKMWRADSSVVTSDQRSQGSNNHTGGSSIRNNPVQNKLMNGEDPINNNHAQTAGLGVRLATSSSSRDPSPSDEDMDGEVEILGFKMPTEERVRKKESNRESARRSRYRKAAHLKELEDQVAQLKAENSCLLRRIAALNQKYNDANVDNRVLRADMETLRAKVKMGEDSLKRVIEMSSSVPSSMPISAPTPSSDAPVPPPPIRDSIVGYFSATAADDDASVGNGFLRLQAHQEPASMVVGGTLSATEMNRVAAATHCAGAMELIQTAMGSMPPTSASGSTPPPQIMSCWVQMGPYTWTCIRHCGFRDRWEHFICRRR
Test: cell-based or functional assay

GUS/luciferase ratio from the z1C (22-kD zein) promoter reporter in onion epidermal cells; YFP-O2 co-expressed with CFP-Taxilin against YFP-O2 alone: 47%
B1: Full length ZmTaxilin fused to the GAL4 activation domain (natural protein, Zea mays, UniProt C0P5X2 1-425, looked up)
chain: MEGSPVARLPEANSLPDGFVPDSESSDTDAAPPSSAPIVDDAIDSDSPDATNPGGEETLSDPSLPASTAEDASSAAAAEALDTLCLDVVADPERALGEHGPTTAARGEGSLKENRASEQVGAPSDQKVVKGSGEPKRKVIKHSKLEKDKELFQLAQQYHKVVAERDQAIAVKDRLESLCREFQRQNKMLKEECQRVSTEGQNMRTELSEKFDHAIKGVSAKLEEQRVERISQLEENNTLRSKLKDLADQYNITQQKYAHQLKEKMLELELADLRLQQHQEKAAQEHTQMQLYAEQVSQLMTTEKNLRLQLASDGERFQHFQDALSKSNEVFETYKQEMEKMISVIKNLKKENEFLKGKCENSDIAIVKLIEERELTKKQIEKLKNQREKLESLCRTLQAERKQGPSASIPDAPSSQEVSATSQES
